Source: PMC7092541, “Characterization of a novel family VIII esterase EstM2 from soil metagenome capable of hydrolyzing estrogenic phthalates” (Microbial Cell Factories, 2020)

How the values were obtained:
Test in all cases: purified protein
[1] = system: CC(=O)Oc1ccc([N+](=O)[O-])cc1; details: 50 mM Tris-HCl pH 8.0, 1% acetonitrile
[2] = system: CCCC(=O)Oc1ccc([N+](=O)[O-])cc1; details: 50 mM Tris-HCl pH 8.0, 1% acetonitrile
[3] = system: CCCCCC(=O)Oc1ccc([N+](=O)[O-])cc1; details: 50 mM Tris-HCl pH 8.0, 1% acetonitrile
[4] = system: CCCCOC(=O)c1ccccc1C(=O)OCCCC; details: 50 mM Tris-HCl pH 8.0, 37 °C, substrate 0.1-10 mM (unit defined at 25 °C)
[5] = system: CCCCOC(=O)c1ccccc1C(=O)OCc1ccccc1; details: 50 mM Tris-HCl pH 8.0, 37 °C, substrate 0.1-10 mM (unit defined at 25 °C)
CCCCOC(=O)c1ccccc1C(=O)O = details: 50 mM Tris-HCl pH 8.0, 37 °C, substrate 0.1-10 mM (unit defined at 25 °C)
CCOC(=O)c1ccccc1C(=O)O = details: 50 mM Tris-HCl pH 8.0, 37 °C, substrate 0.1-10 mM (unit defined at 25 °C)
COC(=O)c1ccccc1C(=O)OC = details: 50 mM Tris-HCl pH 8.0, 37 °C, substrate 0.1-10 mM (unit defined at 25 °C)
COC(=O)c1ccccc1C(=O)O = details: 50 mM Tris-HCl pH 8.0, 37 °C, substrate 0.1-10 mM (unit defined at 25 °C)
[6] = system: O=C(O)c1ccccc1C(=O)OCc1ccccc1; details: 50 mM Tris-HCl pH 8.0, 37 °C, substrate 0.1-10 mM (unit defined at 25 °C)
[7] = system: O=C(O)c1ccccc1C(=O)Oc1ccccc1; details: 50 mM Tris-HCl pH 8.0, 37 °C, substrate 0.1-10 mM (unit defined at 25 °C)
[8] = system: O=C(Oc1ccccc1)c1ccccc1C(=O)Oc1ccccc1; details: 50 mM Tris-HCl pH 8.0, 37 °C, substrate 0.1-10 mM (unit defined at 25 °C)

For EstM2 (uncultured bacterium), the Km [1] was 410 ± 10 µM, the Vmax [1] was 748 µmol/min/mg and the kcat/Km [1] was 1.29e+06 ± 32500 M⁻¹ s⁻¹. The Km [2] was 440 ± 10 µM, the Vmax [2] was 905 µmol/min/mg and the kcat/Km [2] was 1.46e+06 ± 34200 M⁻¹ s⁻¹. It also gave a Km [3] of 280 ± 20 µM, a Vmax [3] of 71.4 µmol/min/mg and a kcat/Km [3] of 183000 ± 10700 M⁻¹ s⁻¹. For the same substance, the Km [4] was 620 ± 40 µM, the Vmax [4] was 72.9 µmol/min/mg and the kcat/Km [4] was 84200 ± 5100 M⁻¹ s⁻¹. It also gave a Km [5] of 640 ± 40 µM, a Vmax [5] of 57.6 µmol/min/mg and a kcat/Km [5] of 64500 ± 3800 M⁻¹ s⁻¹. The Km (CCCCOC(=O)c1ccccc1C(=O)O) was 1260 ± 80 µM, the Vmax (CCCCOC(=O)c1ccccc1C(=O)O) was 56.7 µmol/min/mg and the kcat/Km (CCCCOC(=O)c1ccccc1C(=O)O) was 32200 ± 2200 M⁻¹ s⁻¹. For the same substance, the Km (CCOC(=O)c1ccccc1C(=O)O) was 1730 ± 130 µM, the Vmax (CCOC(=O)c1ccccc1C(=O)O) was 54.2 µmol/min/mg and the kcat/Km (CCOC(=O)c1ccccc1C(=O)O) was 22500 ± 1600 M⁻¹ s⁻¹. It also gave a Km (COC(=O)c1ccccc1C(=O)OC) of 1020 ± 80 µM, a Vmax (COC(=O)c1ccccc1C(=O)OC) of 42.1 µmol/min/mg and a kcat/Km (COC(=O)c1ccccc1C(=O)OC) of 29600 ± 2300 M⁻¹ s⁻¹. For the same substance, the Km (COC(=O)c1ccccc1C(=O)O) was 1950 ± 150 µM, the Vmax (COC(=O)c1ccccc1C(=O)O) was 41.3 µmol/min/mg and the kcat/Km (COC(=O)c1ccccc1C(=O)O) was 15200 ± 1200 M⁻¹ s⁻¹. The Km [6] was 1120 ± 80 µM, the Vmax [6] was 43.8 µmol/min/mg and the kcat/Km [6] was 28000 ± 2000 M⁻¹ s⁻¹. It also gave a Km [7] of 1060 ± 80 µM, a Vmax [7] of 37.6 µmol/min/mg and a kcat/Km [7] of 25400 ± 1900 M⁻¹ s⁻¹. For the same substance, the Vmax [8] was 45.1 µmol/min/mg and the kcat/Km [8] was 54800 ± 3600 M⁻¹ s⁻¹.
